167 variants from the RNAGym collection of RNA variant scans (doi:10.7554/elife.80360) can be followed below.

To fix the notation:
B1: CPEB3 Ribozyme (parent)
chain: GGGGGCCACAGCAGAAGCGUUCACGUCGCGGCCCCUGUCAGAUUCUGGUGAAUCUGCGAAUUCUGCUGU

The variants in this data set derive from B1. The experiment in a line: self-cleavage, relative activity (ratio to wild type); higher = more cleavage; co-transcriptional.
Consider G50U G68A, for which the self-cleavage amounted to 1.01.

For G50U G68C, the self-cleavage was determined as 1.03.

As to A51C G58U, the self-cleavage was determined as 1.03.

Take A51C G58A: the self-cleavage stood at 0.92.

Consider A51C G58C, for which the self-cleavage came out at 0.957.

For G50C C63U, the self-cleavage came to 0.97.

Consider G50C C63A, for which the self-cleavage was 0.813.

In the case of G50C C63G, the self-cleavage is 0.738.

Regarding U49G G56C, the self-cleavage was found to be 0.709.

For U49G G56U, the self-cleavage stood at 0.978.

In the case of U49G G56A, the self-cleavage came to 0.966.

As to G50C C66A, the self-cleavage came to 0.728.

On to G50C C66G, for which the self-cleavage was found to be 0.853.

As for G50C C66U, the self-cleavage was determined as 0.981.

For U49G C66G, the self-cleavage amounted to 0.908.

On to U49G C66U, for which the self-cleavage came out at 0.98.

Regarding G50A A59U, the self-cleavage was determined as 0.834.

As for G50A A59G, the self-cleavage was found to be 1.02.

Take G50A G65U: the self-cleavage worked out at 0.882.

As for G50A G65A, the self-cleavage is 0.901.

With A51C G56U, the self-cleavage came to 0.8.

As to A51C G56A, the self-cleavage came out at 0.856.

Turning to G50A A60G, the self-cleavage was 1.02.

For the variant G50A A60C, the self-cleavage was found to be 0.369.

For G50A A60U, the self-cleavage amounted to 0.449.

With A51C A59G, the self-cleavage is 0.96.

For A51C A59C, the self-cleavage worked out at 0.658.

In the case of A51C A59U, the self-cleavage was 0.742.

For G50U U69C, the self-cleavage came to 1.09.

Regarding G50U U69A, the self-cleavage stood at 0.99.

In the case of G50U U69G, the self-cleavage worked out at 1.05.

Consider G50C C54G, for which the self-cleavage is 0.654.

Regarding G50C C54U, the self-cleavage turned out to be 0.921.

For G50U C54U, the self-cleavage was determined as 0.968.

For G50U C54A, the self-cleavage came to 0.858.

G50A U69G: the self-cleavage was determined as 1.06.

With G50A U69C, the self-cleavage was determined as 1.07.

With G50C U55A, the self-cleavage came out at 0.794.

For the variant G50C U55G, the self-cleavage was 0.685.

Turning to G50C U55C, the self-cleavage turned out to be 0.486.

G50A A51U: the self-cleavage is 0.987.

With G50A A51G, the self-cleavage stood at 0.978.

Take G50U U55C: the self-cleavage came to 0.766.

In the case of A51C U55A, the self-cleavage stood at 0.643.

Take G50C U69G: the self-cleavage stood at 1.06.

With G50C U69A, the self-cleavage is 0.978.

Regarding G50C U61A, the self-cleavage came to 0.823.

As to G50C U61G, the self-cleavage came out at 0.526.

For G50C U61C, the self-cleavage is 0.762.

As to U49G G50A, the self-cleavage came out at 1.02.

Consider G50C A52G, for which the self-cleavage is 0.985.

With G50C A52C, the self-cleavage came to 0.946.

G50C U67G: the self-cleavage was 1.02.

Turning to G50C U67C, the self-cleavage is 0.994.

Turning to U49G C57U, the self-cleavage is 0.282.

Consider U49G C57A, for which the self-cleavage worked out at 0.425.

For U49G C57G, the self-cleavage came out at 0.284.

On to A51C, for which the self-cleavage was 0.989.

Consider G50U U64A, for which the self-cleavage turned out to be 0.954.

For the variant G50U A51G, the self-cleavage stood at 1.01.

With G50U A51U, the self-cleavage was found to be 0.995.

Consider G50A G68C, for which the self-cleavage is 1.02.

In the case of G50A G68U, the self-cleavage was 1.02.

Take G50A U53G: the self-cleavage was found to be 0.9.

In the case of G50A U53C, the self-cleavage was determined as 0.949.

G50U C57U: the self-cleavage turned out to be 0.366.

Regarding G50U C57G, the self-cleavage amounted to 0.264.

Consider G50U C57A, for which the self-cleavage amounted to 0.355.

With U49G G68U, the self-cleavage turned out to be 1.01.

As to G50A U62G, the self-cleavage worked out at 0.959.

With G50A U62A, the self-cleavage was 0.986.

For G50A U62C, the self-cleavage turned out to be 0.949.

G50A U61A: the self-cleavage was 0.862.

For the variant G50A U61C, the self-cleavage worked out at 0.799.

In the case of G50C G65A, the self-cleavage worked out at 0.885.

G50C G65C: the self-cleavage was found to be 0.585.

On to G50C G56A, for which the self-cleavage is 0.831.

As for G50C G56U, the self-cleavage was 0.842.

As to A51C U61A, the self-cleavage is 0.813.

As for U49G U69G, the self-cleavage is 1.02.

In the case of A51C A60U, the self-cleavage came to 0.468.

A51C A60G: the self-cleavage amounted to 0.85.

As to U49G U55C, the self-cleavage came to 0.814.

Turning to U49G U55G, the self-cleavage amounted to 0.819.

For the variant G50A U64A, the self-cleavage was determined as 0.937.

As for G50C A51U, the self-cleavage turned out to be 0.942.

For A51C G68U, the self-cleavage was determined as 1.01.

For A51C G68A, the self-cleavage was determined as 0.961.

For A51C G68C, the self-cleavage was 0.996.

Regarding A51C C54G, the self-cleavage was determined as 0.585.

With A51C C54U, the self-cleavage turned out to be 0.928.

U49G G58A: the self-cleavage amounted to 0.912.

On to G50C U64C, for which the self-cleavage is 0.823.

On to G50C U64G, for which the self-cleavage turned out to be 0.844.

On to G50C U62G, for which the self-cleavage was found to be 0.755.

Turning to G50C U62C, the self-cleavage was 0.763.

In the case of G50C U62A, the self-cleavage was determined as 0.968.

Take U49G U64A: the self-cleavage amounted to 0.985.

Turning to G50U G56U, the self-cleavage stood at 0.91.

In the case of G50U G56A, the self-cleavage is 0.928.

With G50A C66U, the self-cleavage is 1.01.

With G50A G56A, the self-cleavage is 0.909.

Regarding G50A U55A, the self-cleavage turned out to be 0.912.

For G50U A52C, the self-cleavage is 0.979.

Take G50U A52U: the self-cleavage stood at 0.94.

For A51C U53C, the self-cleavage came to 0.781.

For the variant A51C U53A, the self-cleavage was 0.851.

As for A51C G65A, the self-cleavage was found to be 0.807.

Take A51C G65C: the self-cleavage was 0.64.

For the variant G50C A60U, the self-cleavage was 0.456.

As to G50C A60C, the self-cleavage turned out to be 0.34.

With G50A U67A, the self-cleavage was determined as 0.989.

For the variant G50U U67C, the self-cleavage worked out at 1.01.

Consider G50U G65A, for which the self-cleavage was 0.953.

With G50A G58U, the self-cleavage came to 1.02.

For G50A G58A, the self-cleavage is 1.01.

For U49G U62C, the self-cleavage came out at 0.923.

As for U49G U62A, the self-cleavage was 0.937.

Turning to U49G U62G, the self-cleavage is 0.898.

As to G50C A59U, the self-cleavage is 0.767.

With G50C A59G, the self-cleavage turned out to be 1.03.

On to G50C A59C, for which the self-cleavage amounted to 0.68.

G50U U61G: the self-cleavage amounted to 0.857.

G50U U61C: the self-cleavage came out at 0.841.

On to G50U U61A, for which the self-cleavage turned out to be 0.97.

On to G50C G68C, for which the self-cleavage is 0.964.

In the case of G50C G68U, the self-cleavage turned out to be 0.973.

As for U49G C63U, the self-cleavage turned out to be 0.994.

As for U49G C63G, the self-cleavage amounted to 0.907.

For the variant U49G C63A, the self-cleavage stood at 0.952.

Take G50C C57U: the self-cleavage is 0.384.

G50C C57A: the self-cleavage came out at 0.366.

A51C A52C: the self-cleavage was found to be 0.949.

With A51C A52G, the self-cleavage turned out to be 0.914.

On to U49G U61C, for which the self-cleavage was found to be 0.802.

Take U49G U61A: the self-cleavage came to 0.921.

Take G50U U62A: the self-cleavage worked out at 0.989.

Take G50U U62G: the self-cleavage was 0.977.

Take A51C C66U: the self-cleavage amounted to 0.937.

For the variant A51C C66A, the self-cleavage worked out at 0.628.

For A51C C66G, the self-cleavage is 0.777.

On to G50U G58U, for which the self-cleavage came to 1.03.

Consider G50U G58A, for which the self-cleavage amounted to 0.948.

In the case of G50C U53G, the self-cleavage amounted to 0.654.

In the case of G50C U53C, the self-cleavage is 0.866.

As to G50U A59U, the self-cleavage came out at 0.834.

As to G50U A59G, the self-cleavage amounted to 1.04.

Consider G50U C63A, for which the self-cleavage was determined as 0.874.

Consider G50U C63U, for which the self-cleavage turned out to be 0.974.

Take G50U A60U: the self-cleavage worked out at 0.515.

In the case of G50A C63G, the self-cleavage came out at 0.859.

In the case of G50A C63A, the self-cleavage came out at 0.856.

Consider G50C G58U, for which the self-cleavage turned out to be 0.995.

G50C G58C: the self-cleavage worked out at 0.963.

Turning to A51C C57U, the self-cleavage was found to be 0.338.

On to A51C C57A, for which the self-cleavage worked out at 0.294.

G50U U53A: the self-cleavage stood at 0.999.

As to G50A A52U, the self-cleavage is 0.993.

For the variant G50A A52C, the self-cleavage worked out at 1.04.

Regarding G50A C57G, the self-cleavage was found to be 0.301.

With A51C C63A, the self-cleavage is 0.748.

For the variant A51C C63U, the self-cleavage was determined as 0.942.

Take U49G U67G: the self-cleavage turned out to be 1.05.

Regarding U49G U67A, the self-cleavage turned out to be 1.04.

G50A C54A: the self-cleavage worked out at 0.81.

Turning to U49G G65U, the self-cleavage was determined as 0.787.

In the case of U49G G65C, the self-cleavage is 0.607.
